For series [1], the system named is HeLa Kyoto. Briefly: solubility in G1/S (NP-40 vs SDS abundance) (log2 ratio); higher = more soluble. The note with it: cell cycle stage: G1/S.
The test system of series [2] is HeLa Kyoto. In words: melting temperature (median over replicates), in situ; higher = more thermally stable.
Series [3] concerns HeLa Kyoto. In words: solubility change mitosis vs G1/S (difference of NP-40 vs SDS log2 ratios) (log2 ratio difference); higher = more soluble in mitosis.
Series [4] relates to HeLa Kyoto. In words: thermal stability score vs G1/S (z-score of summed log2 fold changes over temperatures); higher = more thermally stable than in G1/S.
Where [5] appears, read: cell cycle stage: early G1 (4.5 h after nocodazole release).
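Throughout, for melting temperature (median over replicates), in situ: HeLa Kyoto cells synchronized by double thymidine or nocodazole block, proteins quantified by TMT10plex mass spectrometry, three independent biological replicates.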
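Throughout, for solubility change mitosis vs G1/S (difference of NP-40 vs SDS log2 ratios): synchronized HeLa Kyoto cells (double thymidine block for G1/S, nocodazole release for mitosis), protein amounts in NP-40 versus SDS lysates quantified by mass spectrometry, three biological replicates.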
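Throughout, for solubility in G1/S (NP-40 vs SDS abundance): HeLa Kyoto cells arrested at G1/S by double thymidine block, proteins quantified by TMT10plex mass spectrometry in mild NP-40 versus SDS extracts, three biological replicates.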
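Throughout, for thermal stability score vs G1/S (z-score of summed log2 fold changes over temperatures): synchronized HeLa Kyoto cells, proteins quantified by TMT10plex mass spectrometry, three biological replicates, mitosis taken 0.5 h after nocodazole release, G1/S directly after double thymidine block.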

With “MKKDVRILLVGEPRVGKTSLIMSLVSEEFPEEVPPRAEEITIPADVTPERVPTHIVDYSEAEQSDEQLHQEISQANVICIVYAVNNKHSIDKVTSRWIPLINERTDKDSRLPLILVGNKSDLVEYSSMETILPIMNQYTEIETCVECSAKNLKNISELFYYAQKAVLHPTGPLYCPEEKEMKPACIKALTRIFKISDQDNDGTLNDAELNFFQRICFNTPLAPQALEDVKNVVRKHISDGVADSGLTLKGFLFLHTLFIQRGRHETTWTVLRRFGYDDDLDLTPEYLFPLLKIPPDCTTELNHHAYLFLQSTFDKHDLDRDCALSPDELKDLFKVFPYIPWGPDVNNTVCTNERGWITYQGFLSQWTLTTYLDVQRCLEYLGYLGYSILTEQESQASAVTVTRDKKIDLQKKQTQRNVFRCNVIGVKNCGKSGVLQALLGRNLMRQKKIREDHKSYYAINTVYVYGQEKYLLLHDISESEFLTEAEIICDVVCLVYDVSNPKSFEYCARIFKQHFMDSRIPCLIVAAKSDLHEVKQEYSISPTDFCRKHKMPPPQAFTCNTADAPSKDIFVKLTTMAMYPHVTQADLKSSTFWLRASFGATVFAVLGFAMYKALLKQR [RHOT1]”, the “solubility in G1/S (log2)” value with HeLa Kyoto [1] was -0.379. In addition, the melting temperature in the series with HeLa Kyoto [2] (cell cycle stage: G1/S) was found to be 52.8 °C; in the series on HeLa Kyoto [2] (cell cycle stage: mitosis), 52.5 °C. Moreover, in the series on HeLa Kyoto [3], the “solubility change mitosis (log2)” value was -0.0628. The thermal stability score in the series on HeLa Kyoto [4] (setting [5]) is -0.722; in the series with HeLa Kyoto [4] (cell cycle stage: mitosis) it was -1.26.
With “MKKFFQEFKADIKFKSAGPGQKLKESVGEKAHKEKPNQPAPRPPRQGPTNEAQMAAAAALARLEQKQSRAWGPTSQDTIRNQVRKELQAEATVSGSPEAPGTNVVSEPREEGSAHLAVPGVYFTCPLTGATLRKDQRDACIKEAILLHFSTDPVAASIMKIYTFNKDQDRVKLGVDTIAKYLDNIHLHPEEEKYRKIKLQNKVFQERINCLEGTHEFFEAIGFQKVLLPAQDQEDPEEFYVLSETTLAQPQSLERHKEQLLAAEPVRAKLDRQRRVFQPSPLASQFELPGDFFNLTAEEIKREQRLRSEAVERLSVLRTKAMREKEEQRGLRKYNYTLLRVRLPDGCLLQGTFYARERLGAVYGFVREALQSDWLPFELLASGGQKLSEDENLALNECGLVPSALLTFSWDMAVLEDIKAAGAEPDSILKPELLSAIEKLL [UBXN6]”, in the series on HeLa Kyoto [1], the “solubility in G1/S (log2)” value came out at 0.337. In addition, in the series with HeLa Kyoto [2] (cell cycle stage: mitosis), the melting temperature was 47.8 °C. Further, the “solubility change mitosis (log2)” value in the series with HeLa Kyoto [3] was -0.0563. The thermal stability score with HeLa Kyoto [4] (setting [5]) and in the series on HeLa Kyoto [4] (cell cycle stage: mitosis) was 0.361 throughout.
Turning to “MKKFSRMPKSEGGSGGGAAGGGAGGAGAGAGCGSGGSSVGVRVFAVGRHQVTLEESLAEGGFSTVFLVRTHGGIRCALKRMYVNNMPDLNVCKREITIMKELSGHKNIVGYLDCAVNSISDNVWEVLILMEYCRAGQVVNQMNKKLQTGFTEPEVLQIFCDTCEAVARLHQCKTPIIHRDLKVENILLNDGGNYVLCDFGSATNKFLNPQKDGVNVVEEEIKKYTTLSYRAPEMINLYGGKPITTKADIWALGCLLYKLCFFTLPFGESQVAICDGNFTIPDNSRYSRNIHCLIRFMLEPDPEHRPDIFQVSYFAFKFAKKDCPVSNINNSSIPSALPEPMTASEAAARKSQIKARITDTIGPTETSIAPRQRPKANSATTATPSVLTIQSSATPVKVLAPGEFGNHRPKGALRPGNGPEILLGQGPPQQPPQQHRVLQQLQQGDWRLQQLHLQHRHPHQQQQQQQQQQQQQQQQQQQQQQQQQQQHHHHHHHHLLQDAYMQQYQHATQQQQMLQQQFLMHSVYQPQPSASQYPTMMPQYQQAFFQQQMLAQHQPSQQQASPEYLTSPQEFSPALVSYTSSLPAQVGTIMDSSYSANRSVADKEAIANFTNQKNISNPPDMSGWNPFGEDNFSKLTEEELLDREFDLLRSNRLEERASSDKNVDSLSAPHNHPPEDPFGSVPFISHSGSPEKKAEHSSINQENGTANPIKNGKTSPASKDQRTGKKTSVQGQVQKGNDESESDFESDPPSPKSSEEEEQDDEEVLQGEQGDFNDDDTEPENLGHRPLLMDSEDEEEEEKHSSDSDYEQAKAKYSDMSSVYRDRSGSGPTQDLNTILLTSAQLSSDVAVETPKQEFDVFGAVPFFAVRAQQPQQEKNEKNLPQHRFPAAGLEQEEFDVFTKAPFSKKVNVQECHAVGPEAHTIPGYPKSVDVFGSTPFQPFLTSTSKSESNEDLFGLVPFDEITGSQQQKVKQRSLQKLSSRQRRTKQDMSKSNGKRHHGTPTSTKKTLKPTYRTPERARRHKKVGRRDSQSSNEFLTISDSKENISVALTDGKDRGNVLQPEESLLDPFGAKPFHSPDLSWHPPHQGLSDIRADHNTVLPGRPRQNSLHGSFHSADVLKMDDFGAVPFTELVVQSITPHQSQQSQPVELDPFGAAPFPSKQ [BMP2K]”, the “solubility in G1/S (log2)” value in the series on HeLa Kyoto [1] was -0.292. In addition, the melting temperature in the series with HeLa Kyoto [2] (cell cycle stage: G1/S) came out at 50.5 °C; in the series on HeLa Kyoto [2] (cell cycle stage: mitosis) it was 51.1 °C. For the same sequence, the “solubility change mitosis (log2)” value with HeLa Kyoto [3] was -0.0153. The thermal stability score in the series with HeLa Kyoto [4] (setting [5]) amounted to 0.793; in the series with HeLa Kyoto [4] (cell cycle stage: mitosis), 0.398.
Consider “MKKQFNRMKQLANQTVGRAEKTEVLSEDLLQIERRLDTVRSICHHSHKRLVACFQGQHGTDAERRHKKLPLTALAQNMQEASTQLEDSLLGKMLETCGDAENQLALELSQHEVFVEKEIVDPLYGIAEVEIPNIQKQRKQLARLVLDWDSVRARWNQAHKSSGTNFQGLPSKIDTLKEEMDEAGNKVEQCKDQLAADMYNFMAKEGEYGKFFVTLLEAQADYHRKALAVLEKTLPEMRAHQDKWAEKPAFGTPLEEHLKRSGREIALPIEACVMLLLETGMKEEGLFRIGAGASKLKKLKAALDCSTSHLDEFYSDPHAVAGALKSYLRELPEPLMTFNLYEEWTQVASVQDQDKKLQDLWRTCQKLPPQNFVNFRYLIKFLAKLAQTSDVNKMTPSNIAIVLGPNLLWARNEGTLAEMAAATSVHVVAVIEPIIQHADWFFPEEVEFNVSEAFVPLTTPSSNHSFHTGNDSDSGTLERKRPASMAVMEGDLVKKESFGVKLMDFQAHRRGGTLNRKHISPAFQPPLPPTDGSTVVPAGPEPPPQSSRAESSSGGGTVPSSAGILEQGPSPGDGSPPKPKDPVSAAVPAPGRNNSQIASGQNQPQAAAGSHQLSMGQPHNAAGPSPHTLRRAVKKPAPAPPKPGNPPPGHPGGQSSSGTSQHPPSLSPKPPTRSPSPPTQHTGQPPGQPSAPSQLSAPRRYSSSLSPIQAPNHPPPQPPTQATPLMHTKPNSQGPPNPMALPSEHGLEQPSHTPPQTPTPPSTPPLGKQNPSLPAPQTLAGGNPETAQPHAGTLPRPRPVPKPRNRPSVPPPPQPPGVHSAGDSSLTNTAPTASKIVTDSNSRVSEPHRSIFPEMHSDSASKDVPGRILLDIDNDTESTAL [ARHGAP17]”, for which the “solubility in G1/S (log2)” value in the series on HeLa Kyoto [1] came out at 0.413. The melting temperature with HeLa Kyoto [2] (cell cycle stage: G1/S) was 48.2 °C; in the series on HeLa Kyoto [2] (cell cycle stage: mitosis) it was 49.1 °C. In addition, the “solubility change mitosis (log2)” value in the series on HeLa Kyoto [3] was -0.0286. In addition, the thermal stability score in the series on HeLa Kyoto [4] (setting [5]) was determined as 0.76; with HeLa Kyoto [4] (cell cycle stage: mitosis), 2.7.
Consider “MKLLARALRLCEFGRQASSRRLVAGQGCVGPRRGCCAPVQVVGPRADLPPCGACITGRIMRPDDANVAGNVHGGTILKMIEEAGAIISTRHCNSQNGERCVAALARVERTDFLSPMCIGEVAHVSAEITYTSKHSVEVQVNVMSENILTGAKKLTNKATLWYVPLSLKNVDKVLEVPPVVYSRQEQEEEGRKRYEAQKLERMETKWRNGDIVQPVLNPEPNTVSYSQSSLIHLVGPSDCTLHGFVHGGVTMKLMDEVAGIVAARHCKTNIVTASVDAINFHDKIRKGCVITISGRMTFTSNKSMEIEVLVDADPVVDSSQKRYRAASAFFTYVSLSQEGRSLPVPQLVPETEDEKKRFEEGKGRYLQMKAKRQGHAEPQP [ACOT7]”, for which the “solubility in G1/S (log2)” value with HeLa Kyoto [1] was 0.0352. The melting temperature with HeLa Kyoto [2] (cell cycle stage: G1/S) is 58.9 °C; in the series with HeLa Kyoto [2] (cell cycle stage: mitosis) it was 59.2 °C. For the same sequence, in the series with HeLa Kyoto [3], the “solubility change mitosis (log2)” value was -0.0718. The thermal stability score in the series with HeLa Kyoto [4] (setting [5]) was -2.43; with HeLa Kyoto [4] (cell cycle stage: mitosis) it was -3.98.

For the origin of these results see the supplement of paper PMC5998384.
